Results reported in patent US20190177366A1 (published 2019).
Bridge positions count the residues as written; N and C are the ends. Ends that are not written are not given here.

B1: Compound 67 (peptide)
peptide: Ac-CRLPWNLKRIGLPC-NH2
modifications: disulfide 1-14
SMILES: CC[C@H](C)[C@@H]1NC(=O)[C@H](CCCNC(=N)N)NC(=O)[C@H](CCCCN)NC(=O)[C@H](CC(C)C)NC(=O)[C@H](CC(N)=O)NC(=O)[C@H](Cc2c[nH]c3ccccc23)NC(=O)[C@@H]2CCCN2C(=O)[C@H](CC(C)C)NC(=O)[C@H](CCCNC(=N)N)NC(=O)[C@@H](NC(C)=O)CSSC[C@@H](C(N)=O)NC(=O)[C@@H]2CCCN2C(=O)[C@H](CC(C)C)NC(=O)CNC1=O
B2: Compound 68 (peptide)
peptide: Ac-CRLPWNLQRIGLAC-NH2
modifications: disulfide 1-14
SMILES: CC[C@H](C)[C@@H]1NC(=O)[C@H](CCCNC(=N)N)NC(=O)[C@H](CCC(N)=O)NC(=O)[C@H](CC(C)C)NC(=O)[C@H](CC(N)=O)NC(=O)[C@H](Cc2c[nH]c3ccccc23)NC(=O)[C@@H]2CCCN2C(=O)[C@H](CC(C)C)NC(=O)[C@H](CCCNC(=N)N)NC(=O)[C@@H](NC(C)=O)CSSC[C@@H](C(N)=O)NC(=O)[C@H](C)NC(=O)[C@H](CC(C)C)NC(=O)CNC1=O
B3: Compound 69 (peptide)
peptide: Ac-CRLPWNLQRIGAPC-NH2
modifications: disulfide 1-14
SMILES: CC[C@H](C)[C@@H]1NC(=O)[C@H](CCCNC(=N)N)NC(=O)[C@H](CCC(N)=O)NC(=O)[C@H](CC(C)C)NC(=O)[C@H](CC(N)=O)NC(=O)[C@H](Cc2c[nH]c3ccccc23)NC(=O)[C@@H]2CCCN2C(=O)[C@H](CC(C)C)NC(=O)[C@H](CCCNC(=N)N)NC(=O)[C@@H](NC(C)=O)CSSC[C@@H](C(N)=O)NC(=O)[C@@H]2CCCN2C(=O)[C@H](C)NC(=O)CNC1=O
B4: Compound 70 (peptide)
peptide: Ac-CRLPWNLQRIALPC-NH2
modifications: disulfide 1-14
SMILES: CC[C@H](C)[C@@H]1NC(=O)[C@H](CCCNC(=N)N)NC(=O)[C@H](CCC(N)=O)NC(=O)[C@H](CC(C)C)NC(=O)[C@H](CC(N)=O)NC(=O)[C@H](Cc2c[nH]c3ccccc23)NC(=O)[C@@H]2CCCN2C(=O)[C@H](CC(C)C)NC(=O)[C@H](CCCNC(=N)N)NC(=O)[C@@H](NC(C)=O)CSSC[C@@H](C(N)=O)NC(=O)[C@@H]2CCCN2C(=O)[C@H](CC(C)C)NC(=O)[C@H](C)NC1=O

These binders were tested against T1, proprotein convertase subtilisin/kexin type 9 (PCSK9) (human, UniProt Q8NBP7 31-152) (assay: phage spot ELISA).
T1 construct: domain: prodomain; Recombinant; tag not written as a part; also called rec.PCSK9; His-PCSK9
T1 sequence (Q8NBP7 31-152 limits assumed, chain 1 of 2): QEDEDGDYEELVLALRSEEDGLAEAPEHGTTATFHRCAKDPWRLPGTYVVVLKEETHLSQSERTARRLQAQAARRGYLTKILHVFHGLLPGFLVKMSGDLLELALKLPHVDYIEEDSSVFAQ
T1 sequence (Q8NBP7 153-692 limits assumed, chain 2 of 2): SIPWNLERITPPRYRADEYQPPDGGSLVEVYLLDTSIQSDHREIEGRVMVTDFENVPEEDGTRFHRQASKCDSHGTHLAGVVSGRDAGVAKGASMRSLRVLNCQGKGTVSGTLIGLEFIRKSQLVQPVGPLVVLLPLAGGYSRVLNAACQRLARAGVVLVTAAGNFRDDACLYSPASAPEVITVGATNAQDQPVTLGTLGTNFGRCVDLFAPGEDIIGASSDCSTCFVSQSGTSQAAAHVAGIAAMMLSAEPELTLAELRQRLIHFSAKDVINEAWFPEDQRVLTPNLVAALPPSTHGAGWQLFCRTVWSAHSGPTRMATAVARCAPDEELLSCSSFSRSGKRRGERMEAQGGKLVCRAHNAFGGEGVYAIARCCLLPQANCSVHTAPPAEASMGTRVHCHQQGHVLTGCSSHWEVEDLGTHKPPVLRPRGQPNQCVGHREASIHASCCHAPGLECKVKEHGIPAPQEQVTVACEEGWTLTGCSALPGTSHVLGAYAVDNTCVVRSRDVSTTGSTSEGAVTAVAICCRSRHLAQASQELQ

Row | Binder | binding result
1 | SGNCWSSLRGICENLG (not fully specified (bridges); cysteine pairing not given here, phage clone without anchor) [SEQ ID NO 367] | binds
2 | SGMVYVDRGVRVFT (phage clone without anchor) [SEQ ID NO 368] | binds
3 | SGGCVKYRGSVSCQESKT (not fully specified (bridges); cysteine pairing not given here, phage clone without anchor) [SEQ ID NO 369] | binds
4 | SGEHQFYSYRGVDVYR (phage clone without anchor) [SEQ ID NO 370] | binds
5 | SGACLNHFVSGNMIRC (not fully specified (bridges); cysteine pairing not given here, phage clone without anchor) [SEQ ID NO 371] | binds
6 | SGSYRGAWSVFGGSTD (phage clone without anchor) [SEQ ID NO 372] | binds
7 | SGCWTYLRGGCSVT (not fully specified (bridges); cysteine pairing not given here, phage clone without anchor) [SEQ ID NO 373] | binds
8 | SGTPEMPAML (phage clone without anchor) [SEQ ID NO 374] | binds
9 | SGLAPTVSDS (phage clone without anchor) [SEQ ID NO 375] | binds
10 | SGDTRSQLSH (phage clone without anchor) [SEQ ID NO 376] | binds
11 | SGAGKLDLSG (phage clone without anchor) [SEQ ID NO 377] | binds
12 | SGVCSDHYIGGKEVRC (not fully specified (bridges); cysteine pairing not given here, phage clone without anchor) [SEQ ID NO 378] | binds
13 | SGNALWNHDRLT (phage clone without anchor) [SEQ ID NO 379] | binds
14 | SGRNGSGYINRGIEIW (phage clone without anchor) [SEQ ID NO 380] | binds
15 | SGHASKGMVLSG (phage clone without anchor) [SEQ ID NO 381] | binds
16 | SGGSIPWNLERITPPR (phage clone without anchor) [SEQ ID NO 382] | binds
17 | SGCFIPWNLQRIGLLC [SEQ ID NO 383] | binds
18 | SGGACPWNLERIGLSC [SEQ ID NO 384] | binds
19 | SGDFIPWNLVRIGLLR [SEQ ID NO 385] | binds
20 | SGCRLPWNLQRIGLPC [SEQ ID NO 386] | binds
21 | SGRCLNHLISGNMNSC (not fully specified (bridges); cysteine pairing not given here) [SEQ ID NO 387] | binds
22 | SGACVKPCIAGNIIR (not fully specified (bridges); cysteine pairing not given here) [SEQ ID NO 388] | binds
23 | SGGSMPWNLERIFALH [SEQ ID NO 390] | binds
24 | SGCSDLWNLARIYPMC (not fully specified (bridges); cysteine pairing not given here) [SEQ ID NO 391] | binds

Each binder was assayed against T2, His-tagged, full-length PCSK9 (human, UniProt A8T644 31-152; Q8NBP7 153-692) (assay: TR-FRET competition; competitor EGF(A)-Fc on His-PCSK9).
T2 construct: Target protein of the PCSK9/EGF(A) TR-FRET assay (10 nM); also called His-PCSK9; proprotein convertase subtilisin/kexin type 9
T2 sequence (A8T644 31-152 limits assumed, chain 1 of 2): as the sequence (Q8NBP7 31-152 limits assumed, chain 1 of 2) above
T2 sequence (A8T644 other isoform, or with tags, fused parts or gaps limits assumed, chain 2 of 2): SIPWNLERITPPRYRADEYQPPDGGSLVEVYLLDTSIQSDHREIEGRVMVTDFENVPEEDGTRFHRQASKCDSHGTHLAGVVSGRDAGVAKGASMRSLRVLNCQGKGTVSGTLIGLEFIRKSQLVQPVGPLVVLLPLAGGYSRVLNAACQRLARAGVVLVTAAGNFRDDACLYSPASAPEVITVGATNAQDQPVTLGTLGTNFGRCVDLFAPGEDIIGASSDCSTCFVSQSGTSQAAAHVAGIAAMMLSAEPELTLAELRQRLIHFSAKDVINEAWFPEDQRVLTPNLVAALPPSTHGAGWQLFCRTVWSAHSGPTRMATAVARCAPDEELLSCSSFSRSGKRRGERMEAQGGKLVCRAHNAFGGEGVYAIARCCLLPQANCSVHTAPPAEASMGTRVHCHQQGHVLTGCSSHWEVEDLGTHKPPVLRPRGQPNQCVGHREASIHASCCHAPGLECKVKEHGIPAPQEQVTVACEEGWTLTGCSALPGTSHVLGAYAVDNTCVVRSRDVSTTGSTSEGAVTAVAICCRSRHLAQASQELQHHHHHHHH

Row | Binder | IC50 [µM]
25 | Ac-SGCFIPWNLQRIGLLC-NH2 (disulfide 3-16 (inferred)) [Compound 29] | > 50
26 | Ac-SGCRLPWNLQRIGLPC-NH2 (disulfide 3-16 (inferred)) [Compound 30] | > 50
27 | Ac-CFIPWNLQRIGLLC-NH2 (disulfide 1-14 (inferred)) [Compound 31] | > 50
28 | Ac-CRLPWNLQRIGLPC-NH2 (disulfide 1-14 (inferred)) [Compound 32] | > 50
29 | B1 | > 50
30 | B2 | > 50
31 | B3 | > 50
32 | B4 | > 50
